Measured values as given in patent US10463750.
One block for each substance: values may come before it.

Legend:
[1] = target: 2C TCR (transgenic T cell receptor of CD8+ 2C T cells) (mouse); experiment: cell-based or functional assay
[2] = target: Pmel TCR (tumor-antigen gp-100 specific transgenic TCR of CD8+ Pmel T cells) (mouse); experiment: cell-based or functional assay

lysis of T2 cells, pre-targeted assay, E:T 10:1, 51Cr release [1]: < 20% | re-directional lysis specific window (Ld-QL9-Ig/CD19 against Ld-QL9-Ig beads) [1]: < 15%
Substance: QL9 peptide loaded L^d-Ig dimer (from UniProt P61769 21-119) (peptide-MHC)

1B2/CD19 specific re-direction lysis of T2 cells, pre-targeted protocol, 51Cr release [1]: 20 to 25% | PKH26/67 double positive cell conjugates (2C/T2 conjugate formation) [1]: 19.5% | re-directional specific lysis window of T2 cells (1B2/CD19 minus 1B2 beads), co-culture, E:T 1:1, 51Cr release [1]: 30% | re-directional specific lysis window of T2 cells (1B2/CD19 minus 1B2 beads), co-culture, E:T 2:1, 51Cr release [1]: 20% | re-directional specific lysis window of T2 cells (1B2/CD19 minus 1B2 beads), co-culture, E:T 5:1, 51Cr release [1]: 10% | specific lysis of T2 cells, pre-targeted protocol (FIG. 4B), 51Cr release [1]: 20%
Substance: 1B2 (an anti-clonotypic 2C TCR-specific mAb; mouse IgG1 isotype) (antibody)

lysis of T2 cells, pre-targeted assay, E:T 10:1, 51Cr release [2]: < 40% | re-directional specific lysis window (Db-gp100-Ig/CD19 against Db-gp100-Ig beads) [2]: 5%
Substance: GP 100 peptide loaded D^b-Ig dimer (from UniProt P61769 21-119) (peptide-MHC)
